According to article PMC7022712, “Functional Analysis of DNMT3A DNA Methyltransferase Mutations Reported in Patients with Acute Myeloid Leukemia”:

Experiments:
Dnmt3a-CD F162V = Dnmt3a-CD F162V (Mus musculus, UniProt O88508 608-908, F748V); assay: fluorescence polarization; 100 uM AdoHcy; no plateau reached; Buffer A: 20 mM HEPES pH 7.5, 100 mM KCl, 1 mM EDTA, 1 mM DTT, 100 uM AdoHcy, 25 C; DNA 100 nM (Methods) or 10 nM (Figure 6 legend); Hill fit; conditions: protein: recombinant; tags: C-terminal His6; chain copies: 2; label: 5'-FAM on strand 1 via aminohexyl linker; blunt
Dnmt3a-CD F162V, sequence (O88508 608-908 F748V): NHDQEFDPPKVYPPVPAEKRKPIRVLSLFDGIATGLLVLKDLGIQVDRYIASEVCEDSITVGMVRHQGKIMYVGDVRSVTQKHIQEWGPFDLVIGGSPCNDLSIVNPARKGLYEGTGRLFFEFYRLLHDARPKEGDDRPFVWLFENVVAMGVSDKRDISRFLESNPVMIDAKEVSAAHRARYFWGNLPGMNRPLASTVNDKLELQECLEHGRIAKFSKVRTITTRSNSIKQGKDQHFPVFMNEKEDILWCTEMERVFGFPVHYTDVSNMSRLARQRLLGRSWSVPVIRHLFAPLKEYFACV

Dnmt3a-CD R45W = Dnmt3a-CD R45W (Mus musculus, UniProt O88508 608-908, R631W); assay: fluorescence polarization; 100 uM AdoHcy; Buffer A: 20 mM HEPES pH 7.5, 100 mM KCl, 1 mM EDTA, 1 mM DTT, 100 uM AdoHcy, 25 C; DNA 100 nM (Methods) or 10 nM (Figure 6 legend); Hill fit; conditions: protein: recombinant; tags: C-terminal His6; chain copies: 2; label: 5'-FAM on strand 1 via aminohexyl linker; blunt
Dnmt3a-CD R45W, sequence (O88508 608-908 R631W): as the sequence (O88508 608-908 F748V) above, with R24W, V141F counted along it

Dnmt3a-CD WT = Dnmt3a-CD WT (Mus musculus, UniProt O88508 608-908); assay: as above; conditions: protein: recombinant; tags: C-terminal His6 (Results); chain copies: 2; label: 5'-FAM on strand 1 via aminohexyl linker; blunt
Dnmt3a-CD WT, sequence (O88508 608-908): as the sequence (O88508 608-908 F748V) above, with V141F counted along it

Dnmt3a-CD S124C = Dnmt3a-CD S124C (Mus musculus, UniProt O88508 608-908, S710C); assay: as above; conditions: protein: recombinant; tags: C-terminal His6; chain copies: 2; label: 5'-FAM on strand 1 via aminohexyl linker; blunt
Dnmt3a-CD S124C, sequence (O88508 608-908 S710C): as the sequence (O88508 608-908 F748V) above, with S103C, V141F counted along it

Dnmt3a-CD R146H = Dnmt3a-CD R146H (Mus musculus, UniProt O88508 608-908, R732H); assay: as above; conditions: protein: recombinant; tags: C-terminal His6; chain copies: 2; label: 5'-FAM on strand 1 via aminohexyl linker; blunt
Dnmt3a-CD R146H, sequence (O88508 608-908 R732H): as the sequence (O88508 608-908 F748V) above, with R125H, V141F counted along it

B1: fCG/CG (dsDNA)
DNA 1: CTGAATACTACTTGCGCTCTCTAACCTGAT
DNA 2: ATCAGGTTAGAGAGCGCAAGTAGTATTCAG
Kd (Dnmt3a-CD F162V): 232 ± 32 nM | binding result (Dnmt3a-CD R45W): no binding | Kd (Dnmt3a-CD WT): 77 ± 6 nM | Kd (Dnmt3a-CD S124C): 127 ± 44 nM | binding result (Dnmt3a-CD R146H): no binding
